Measured values: US11666658B2, “Rifamycin analogs and antibody-drug conjugates thereof” (Regeneron Pharmaceuticals, Inc., priority 2018, dated 2023)

Assays:
[1] = target: T1, human MSR1 extracellular domain (His9-hMSR1) (Homo sapiens, UniProt P21757); assay: Surface plasmon resonance (Biacore 4000) binding kinetics, antibody-capture format, 25° C. and 37° C.; conditions: analyte His9-hMSR1
T1 construct: human MSR1 extracellular domain expressed with a N-terminal nonahistidine tag; purchased R&D Systems 2708-MS
T1 sequence (P21757 77-451 limits assumed): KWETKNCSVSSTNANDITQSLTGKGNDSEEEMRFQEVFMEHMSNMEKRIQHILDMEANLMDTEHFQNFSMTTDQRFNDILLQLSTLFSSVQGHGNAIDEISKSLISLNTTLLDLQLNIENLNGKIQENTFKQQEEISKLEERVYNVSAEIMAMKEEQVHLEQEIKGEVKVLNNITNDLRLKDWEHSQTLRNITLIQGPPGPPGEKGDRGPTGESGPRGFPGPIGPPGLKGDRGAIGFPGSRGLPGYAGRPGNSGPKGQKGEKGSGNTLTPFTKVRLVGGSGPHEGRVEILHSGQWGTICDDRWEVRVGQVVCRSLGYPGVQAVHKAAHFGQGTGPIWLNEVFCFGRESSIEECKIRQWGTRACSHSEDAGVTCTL
Experimental: (§1) Binding affinities and kinetic constants of human anti-MSR1 antibodies for different MSR1 reagents were determined by real-time surface plasmon resonance (Biacore 4000). All binding studies were performed in 10 mM HEPES, 150 mM NaCl, 3 mM EDTA, and 0.05% v/v Surfactant Tween-20, pH 7.4 (HBS-ET) running buffer at 25° C. and 37° C.
(§2) The association rate (ka) and dissociation rate (kd) were determined by fitting the real-time binding sensorgrams to a 1:1 binding model with mass transport limitation using Scrubber 2.0 c curve-fitting software. Binding dissociation equilibrium constant (KD) and dissociative half-life (t½) were calculated from the kinetic rates as: […]

[2] = test system: monkey MSR1 extracellular domain (HMM-mfMSR1); assay: as above; conditions: analyte HMM-mfMSR1
Sequence of monkey MSR1 extracellular domain (HMM-mfMSR1) (as listed by the source): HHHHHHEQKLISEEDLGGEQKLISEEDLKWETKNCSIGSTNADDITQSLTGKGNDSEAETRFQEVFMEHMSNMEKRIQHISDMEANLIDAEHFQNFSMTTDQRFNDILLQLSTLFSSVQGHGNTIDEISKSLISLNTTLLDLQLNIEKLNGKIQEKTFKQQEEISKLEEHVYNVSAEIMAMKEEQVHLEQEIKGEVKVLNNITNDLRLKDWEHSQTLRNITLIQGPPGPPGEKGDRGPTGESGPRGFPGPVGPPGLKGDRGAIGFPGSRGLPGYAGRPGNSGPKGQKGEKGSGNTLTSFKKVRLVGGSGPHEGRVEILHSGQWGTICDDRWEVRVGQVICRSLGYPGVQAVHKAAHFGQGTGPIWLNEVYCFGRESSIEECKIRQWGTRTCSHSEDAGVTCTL
Experimental: as §1, §2

[3] = target: T2, mouse MSR1 extracellular domain (His9-mMSR1) (Mus musculus, UniProt P30204); assay: OCTET bio-layer interferometry binding kinetics, 25° C.; conditions: antibody-capture format
T2 construct: mouse MSR1 extracellular domain expressed with a N-terminal nonahistidine tag; purchased R&D Systems 1797-MS
T2 sequence (P30204 79-458 limits assumed): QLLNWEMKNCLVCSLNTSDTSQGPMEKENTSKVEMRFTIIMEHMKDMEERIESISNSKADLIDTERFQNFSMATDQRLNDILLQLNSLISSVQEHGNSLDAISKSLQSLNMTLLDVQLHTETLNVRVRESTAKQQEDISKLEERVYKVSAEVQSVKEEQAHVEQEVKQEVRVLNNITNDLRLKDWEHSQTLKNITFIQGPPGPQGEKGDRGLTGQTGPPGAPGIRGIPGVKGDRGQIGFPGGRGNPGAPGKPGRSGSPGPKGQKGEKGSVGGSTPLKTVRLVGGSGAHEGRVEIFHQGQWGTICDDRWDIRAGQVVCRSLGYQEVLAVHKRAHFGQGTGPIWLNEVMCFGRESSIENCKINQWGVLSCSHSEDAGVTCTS
Experimental: Binding affinities and kinetic constants of human anti-MSR1 antibodies for different MSR1 reagents were determined using a real time, label-free bio-layer interferometry assay on an OCTET® HTX biosensor platform (Pall FortéBio Corp., Menlo Park, Calif.). The experiment was performed at 25° C. in 10 mM HEPES, 150 mM NaCl, 3 mM EDTA, 0.05% v/v Surfactant Tween-20, and 1 mg/mL BSA, pH7.4 (HBS-EBT) buffer with the plate shaking at the speed of 1000 rpm. […] The binding of different MSR1 reagents to the captured anti-MSR1 monoclonal antibody was measured for 4 minutes and the dissociation of monoclonal antibody bound MSR1 reagent was monitored for 8-10 minutes in HBS-EBT buffer.
as §2

[4] = test system: S. aureus MRSA strain NRS384; assay: S. aureus IV disseminated infection mouse model (humanized MSR1 mice), kidney burden; format: in vivo, Staphylococcus aureus; conditions: with vancomycin; for # of mice with S. aureus below the limit of detection: limit of detection = 250 cfu
Experimental: To test the efficacy of an anti-MSR1 Ab-antibiotic ncADC according to the disclosure in vivo, an intravenous disseminated infection model was utilized. S. aureus MRSA strain NRS384 was grown overnight in trypic soy broth (TSB) and sub-cultured to mid-logarithmic phase. Bacteria were then washed twice with PBS and resuspended in PBS at a concentration of 1.2×10^8 cfu/mL. […] From one to three days post infection, mice were treated with 110 mg/kg vancomycin subcutaneously twice daily wherein indicated. […] Mice were monitored for weight loss and body conditioning score throughout the infection. At four days post infection, mice were euthanized and the S. aureus kidney burden was quantified by tissue homogenization followed by enumeration of colony forming units through serial dilution in PBS and plating onto trypicase soy agar plates.

[5] = 37° C., antibody-capture format
[6] = 37° C., antibody-capture format, * = no dissociation observed, kd manually fixed at 1.00E−05
[7] = Biacore, 25° C., * no dissociation observed, kd fixed at 1.00E−05
[8] = mAb or conjugate dose 0.1 mg/kg

B1: H1H21234N-N297Q: "An anti-MSR1 antibody H1H21234N containing a N297Q mutation, which eliminates N-linked glycosylation of the Fc at this site" (antibody, V domains shown)
VH: QVQLQESGPGLVKPSETLSLTCTVTGGSISRNYWSWIRQPPGKGLEWIGYIYYSGSIDYNPSLKSRVTISVDTSKNQFSLKLSSMTAADTAVYYCARDRWNWKYGMDVWGQGTTVIVSS
VL: EIVLTQSPGTLSLSPGERATLSCRASQTVRNNYLAWYHQKPGQAPRLLIYGASSRATGIPDRFSGSGSGTDFTLTISRLEPEDFTVYYCHQYGNSPWTFGQGTKMEIKR
B1 was tested, and the ka [1, 5] was 787000 M⁻¹ s⁻¹, the kd [1, 6] was 1.00E−05* s^−1 and the ka ([1]; Biacore, 25° C.) was 497000 M⁻¹ s⁻¹. The kd [1, 7] was 1.00E−05* s^−1, the ka [2, 5] was 750000 M⁻¹ s⁻¹ and the kd [2, 6] was 1.00E−05* s^−1. For the same molecule, the ka ([2]; Biacore, 25° C.) was 408000 M⁻¹ s⁻¹, the kd [2, 7] was 1.95e-05 s⁻¹ and the kd ([3]; analyte His9-mMSR1, * = no dissociation observed, kd manually fixed at 5.00E−05) was 5.00E−05* s^−1. The ka ([3]; analyte His9-mMSR1, NB = no binding, IC = inconclusive) was 38200 M⁻¹ s⁻¹, the Average cfu/kidney pair [4, 8] was 2.43E+05 cfu/kidney pair and the “# of mice with S. aureus below the limit of detection” value [4, 8] was 0/6. The Average cfu/kidney pair ([4]; mAb or conjugate dose 1 mg/kg) was 1.55E+05 cfu/kidney pair and the “# of mice with S. aureus below the limit of detection” value ([4]; mAb or conjugate dose 1 mg/kg) was 4/8.
